Consider one molecule from PMC8096781, “FOXM1D potentiates PKM2‐mediated tumor glycolysis and angiogenesis” (Molecular Oncology, 2021).

The target of the assay is PKM2 (purchased from Abcam) (UniProt P14618 1-531). Description: cell-based or functional assay.
PKM2 (purchased from Abcam), sequence (P14618 whole entry): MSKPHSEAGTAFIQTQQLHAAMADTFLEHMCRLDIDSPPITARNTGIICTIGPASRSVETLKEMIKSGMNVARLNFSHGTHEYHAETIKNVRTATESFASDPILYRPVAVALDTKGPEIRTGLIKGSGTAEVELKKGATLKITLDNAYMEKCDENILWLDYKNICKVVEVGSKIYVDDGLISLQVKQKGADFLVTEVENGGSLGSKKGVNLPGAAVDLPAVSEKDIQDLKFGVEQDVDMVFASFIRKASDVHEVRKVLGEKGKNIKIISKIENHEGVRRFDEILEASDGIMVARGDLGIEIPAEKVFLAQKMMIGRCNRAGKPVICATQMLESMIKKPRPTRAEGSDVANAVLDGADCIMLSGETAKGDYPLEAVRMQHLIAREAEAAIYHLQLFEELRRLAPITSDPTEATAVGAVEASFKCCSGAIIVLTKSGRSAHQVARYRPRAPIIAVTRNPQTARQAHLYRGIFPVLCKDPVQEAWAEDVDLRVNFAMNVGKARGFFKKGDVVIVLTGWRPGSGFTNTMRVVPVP

B1: recombinant Flag-FOXM1D (purified) (natural protein, UniProt Q08050-4 1-786, looked up)
chain: MKTSPRRPLILKRRRLPLPVQNAPSETSEEEPKRSPAQQESNQAEASKEVAESNSCKFPAGIKIINHPTMPNTQVVAIPNNANIHSIITALTAKGKESGSSGPNKFILISCGGAPTQPPGLRPQTQTSYDAKRTEVTLETLGPKPAARDVNLPRPPGALCEQKRETCADGEAAGCTINNSLSNIQWLRKMSSDGLGSRSIKQEMEEKENCHLEQRQVKVEEPSRPSASWQNSVSERPPYSYMAMIQFAINSTERKRMTLKDIYTWIEDHFPYFKHIAKPGWKNSIRHNLSLHDMFVRETSANGKVSFWTIHPSANRYLTLDQVFKQQKRPNPELRRNMTIKTELPLGARRKMKPLLPRVSSYLVPIQFPVNQSLVLQPSVKVPLPLAASLMSSELARHSKRVRIAPKVFGEQVVFGYMSKFFSGDLRDFGTPITSLFNFIFLCLSVLLAEEGIAPLSSAGPGKEEKLLFGEGFSPLLPVQTIKEEEIQPGEEMPHLARPIKVESPPLEEWPSPAPSFKEESSHSWEDSSQSPTPRPKKSYSGLRSPTRCVSEMLVIQHRERRERSRSRRKQHLLPPCVDEPELLFSEGPSTSRWAAELPFPADSSDPASQLSYSQEVGGPFKTPIKETLPISSTPSKSVLPRTPESWRLTPPAKVGGLDFSPVQTSQGASDPLPDPLGLMDLSTTPLQSAPPLESPQRLLSSEPLDLISVPFGNSSPSDIDVPKPGSPEPQVSGLAANRSLTEGLVLDTMNDSLSKILLDISFPGLDEDPLGPDNINWSQFIPELQ
In the case of B1, the “PK activity of PKM2 with FBP; FOXM1D added at 10, 20 and 30 μg per 10 μg PKM2 (molar ratios about 0.665, 1.33 and 2); share of the activity abolished at 1.33-fold FOXM1D” value was about 49%.
